Source: PMC7544621 (Structure (London, England : 1993), 2020)

Target: T1, monomeric head domain of HA from H1 A/Solomon Islands/03/2006 (Influenza A virus A/Solomon …)
T1 chain: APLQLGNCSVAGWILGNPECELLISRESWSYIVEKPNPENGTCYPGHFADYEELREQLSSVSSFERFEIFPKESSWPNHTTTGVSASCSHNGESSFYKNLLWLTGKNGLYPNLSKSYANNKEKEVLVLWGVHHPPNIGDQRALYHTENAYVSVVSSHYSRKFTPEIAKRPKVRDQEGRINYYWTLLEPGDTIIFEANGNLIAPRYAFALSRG
Test: BLI

B1: C05 IgG (anti-influenza human mAb C05) (antibody, V domains shown)
VH: QVQLQESGGGLVQPGESLRLSCVGSGSSFGESTLSYYAVSWVRQAPGKGLEWLSIINAGGGDIDYADSVEGRFTISRDNSKETLYLQMTNLRVEDTGVYYCAKHMSMQQVVSAGWERADLVGDAFDVWGQGTMVTVSS
VL: DIQLTQSPSSLSASVGDRVTLTCQASQDIRKFLNWYQQKPGKGPKLLIYDASNLQRGVPSRFSGGGSGTDFTLIISSLQPEDVGTYYCQQYDGLPFTFGGGTKVVIK
Kd: 88 nM
